One block for each binder: values may come before it.
Tests used:
[1] = biological target: soluble IGFR1 (sIGFR1), NSO-expressed recombinant protein encompassing the alpha-subunit and the extracellular domain of the beta-subunit of IGFR1 (human) (UniProt P08069); test: SPR (Biacore 3000), IGFR1 on CM-5 chip, 25° C.; calculated from koff
[2] = biological target: soluble IGFR1 (sIGFR1), NSO-expressed recombinant protein encompassing the alpha-subunit and the extracellular domain of the beta-subunit of IGFR1 (human) (UniProt P08069); test: SPR (Biacore 3000), IGFR1 on CM-5 chip, 25° C.
[3] = biological target: soluble IGFR1 (sIGFR1), NSO-expressed recombinant protein encompassing the alpha-subunit and the extracellular domain of the beta-subunit of IGFR1 (human) (UniProt P08069); test: SPR (Biacore 3000), IGFR1 on CM-5 chip, 37° C.
[4] = biological target: soluble IGFR1 (sIGFR1), NSO-expressed recombinant protein encompassing the alpha-subunit and the extracellular domain of the beta-subunit of IGFR1 (human) (UniProt P08069); test: SPR (Biacore 3000), IGFR1 on CM-5 chip, 25° C.; 25° C.
[5] = biological target: soluble IGFR1 (sIGFR1), NSO-expressed recombinant protein encompassing the alpha-subunit and the extracellular domain of the beta-subunit of IGFR1 (human) (UniProt P08069); test: SPR (Biacore 3000), IGFR1 on CM-5 chip, 37° C.; calculated from koff
[6] = biological target: soluble IGFR1 (sIGFR1), NSO-expressed recombinant protein encompassing the alpha-subunit and the extracellular domain of the beta-subunit of IGFR1 (human) (UniProt P08069); test: isotype ELISA on coated soluble IGFR1, detected with HRP-anti-human IgG3
[7] = biological target: soluble IGFR1 (sIGFR1), NSO-expressed recombinant protein encompassing the alpha-subunit and the extracellular domain of the beta-subunit of IGFR1 (human) (UniProt P08069); test: isotype ELISA on coated soluble IGFR1, detected with HRP-anti-hu kappa
[8] = biological target: soluble IGFR1 (sIGFR1), NSO-expressed recombinant protein encompassing the alpha-subunit and the extracellular domain of the beta-subunit of IGFR1 (human) (UniProt P08069); test: isotype ELISA on coated soluble IGFR1, detected with HRP-anti-hu-gamma

- Half-life [1]: 8.6 h
- koff [2]: 2.24e-05 s⁻¹
- koff [3]: 4.01e-05 s⁻¹
- kon [3]: 720000 M⁻¹ s⁻¹
- kon [4]: 500000 M⁻¹ s⁻¹
- Half-life [5]: 4.8 h
- ELISA signal (OD415 nm-490 nm) [6]: 0.813 OD
- ELISA signal (OD415 nm-490 nm) [7]: 1 OD
- ELISA signal (OD415 nm-490 nm) [8]: 1.9 OD
B1: 15H12 fully human monoclonal anti-IGFR1 antibody (antibody, IgG3, V domains shown)
VH: EVQLVQSGGGLVHPGGSLRLSCAASGFTFSSFAMHWVRQAPGKGLEWISVIDTRGATYYADSVKGRFTISRDNAKNSLYLQMNSLRAEDMAVYYCARLGNFYYGMDVWGQGTTVTVSS
VL: EIVLTQVPDFQSVTPKEKVTITCRASQSIGSSLHWYQQKPDQSPKLLIKYASQSLSGVPSRFSGSGSGTDFTLTINSLEAEDAAAYYCHQSSRLPHTFGGGTKVEIKR

- Half-life [1]: 7.27 h
- koff [2]: 2.65e-05 s⁻¹
- kon [2]: 400000 M⁻¹ s⁻¹
- koff [3]: 4.93e-05 s⁻¹
- kon [3]: 680000 M⁻¹ s⁻¹
- Half-life [5]: 3.91 h
B2: 19D12 fully human monoclonal anti-IGFR1 antibody (antibody, V domains shown)
VH: B1 VH
VL: B1 VL
